The data set addresses T1, AtWRI1 (Arabidopsis thaliana) (UniProt Q6X5Y6).
T1 sequence: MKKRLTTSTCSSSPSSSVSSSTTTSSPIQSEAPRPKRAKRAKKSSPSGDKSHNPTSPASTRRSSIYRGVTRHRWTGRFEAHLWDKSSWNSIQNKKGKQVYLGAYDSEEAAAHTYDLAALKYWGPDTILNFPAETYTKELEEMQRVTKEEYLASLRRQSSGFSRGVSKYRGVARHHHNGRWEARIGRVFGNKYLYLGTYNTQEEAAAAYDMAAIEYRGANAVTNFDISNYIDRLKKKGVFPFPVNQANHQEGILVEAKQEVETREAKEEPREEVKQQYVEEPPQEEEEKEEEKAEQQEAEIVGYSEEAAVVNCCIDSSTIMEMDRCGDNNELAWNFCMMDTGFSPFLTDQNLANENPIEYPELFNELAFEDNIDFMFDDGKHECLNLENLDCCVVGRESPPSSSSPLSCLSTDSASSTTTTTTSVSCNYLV
Description: EMSA. The note with it: fEMSA: 150 mM KCl, 0.1 mM DTT, 10 mM Tris pH 7.4, 150 ng poly(dI-dC), 50 ng Cy5 probe, 10 ul, 30 min, room temperature. A general note: In EMSA bound probe runs differently from free probe, usually more slowly.

As to “TAAAAGAGTTGGGTTTCTTCGTAAGCATCGAAATCAGATTTCTTTACCAAAGAAAAAATAAAGAAAAGAAAAATATAGCAAGTACACTGCATTTCAACACTCTCATATCTCTCCTTCCTACTTCCTCGGTTTCATCGTCCACTGTCTCAA (double strand) [BCCP2up (-2/-151)]”, the binding entry is “binds”.

The values are drawn from paper PMC6447653.
